Assay [1] has as its target T1, human serum albumin (human, UniProt P02768 25-609).
T1 construct: also called HSA
Description: SPR (Biacore T100), periplasmic extracts over immobilized human serum albumin, pH 7 and pH 5. In general terms: In SPR one partner is held on a chip, and binding of the other changes the refractive index at the surface.

The target of assay [2] is T1, human serum albumin. In words: SPR (Biacore T100), periplasmic extracts over immobilized human serum albumin.
The target of assay [3] is T2, human plgR overexpressed in MDCK cells (human, UniProt P01833 19-764).
T2 construct: whole, on cells; also called hpIgR; human polymeric immunoglobulin receptor
In words: immunofluorescence on MDCK cells overexpressing human plgR, 3 uM Nanobody at 4C.

Assay [4] has as its target T3, ectodomain of human plgR (R&D Systems Cat # 2717-PG) (human, UniProt P01833 19-638).
T3 construct: extracellular domain; Immobilized at 5 ug/ml on Maxisorp plates; also called plgR ectodomain; pIgR
In words: competition ELISA, dilution series of purified Nanobody against IgA on immobilized plgR ectodomain. A general note: ELISA stands for enzyme-linked immunosorbent assay.

In assay [5] the target is T1, human serum albumin. In words: SPR (Biacore T100) over immobilized human serum albumin, pH 7, pH 6 and pH 5.
Assay [6] addresses T2, human plgR overexpressed in MDCK cells. In words: immunoprecipitation from cell lysates with His-tagged Nanobody and talon beads, blot with a-hSC.

Substitutions are numbered along the chain they refer to.

T2 sequence (P01833 19-764): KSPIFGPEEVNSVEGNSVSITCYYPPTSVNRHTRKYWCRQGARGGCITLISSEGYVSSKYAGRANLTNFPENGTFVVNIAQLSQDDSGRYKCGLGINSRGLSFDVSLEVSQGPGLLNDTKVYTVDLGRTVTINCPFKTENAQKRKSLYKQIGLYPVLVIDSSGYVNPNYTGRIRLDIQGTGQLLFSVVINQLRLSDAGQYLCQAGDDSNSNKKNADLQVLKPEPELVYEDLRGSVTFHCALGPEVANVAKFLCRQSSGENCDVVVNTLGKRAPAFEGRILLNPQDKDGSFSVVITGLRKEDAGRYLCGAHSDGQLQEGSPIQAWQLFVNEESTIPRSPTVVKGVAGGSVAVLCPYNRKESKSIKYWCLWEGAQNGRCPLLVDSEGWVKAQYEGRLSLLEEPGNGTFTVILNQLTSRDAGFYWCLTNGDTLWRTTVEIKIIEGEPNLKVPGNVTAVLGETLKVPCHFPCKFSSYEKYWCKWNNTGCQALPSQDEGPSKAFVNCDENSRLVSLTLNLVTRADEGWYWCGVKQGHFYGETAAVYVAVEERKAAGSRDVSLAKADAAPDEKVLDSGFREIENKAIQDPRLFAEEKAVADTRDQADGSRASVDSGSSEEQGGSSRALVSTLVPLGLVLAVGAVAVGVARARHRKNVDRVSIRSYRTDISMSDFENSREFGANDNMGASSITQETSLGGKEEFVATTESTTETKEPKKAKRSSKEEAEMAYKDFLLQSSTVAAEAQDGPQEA
T3 sequence (P01833 19-638): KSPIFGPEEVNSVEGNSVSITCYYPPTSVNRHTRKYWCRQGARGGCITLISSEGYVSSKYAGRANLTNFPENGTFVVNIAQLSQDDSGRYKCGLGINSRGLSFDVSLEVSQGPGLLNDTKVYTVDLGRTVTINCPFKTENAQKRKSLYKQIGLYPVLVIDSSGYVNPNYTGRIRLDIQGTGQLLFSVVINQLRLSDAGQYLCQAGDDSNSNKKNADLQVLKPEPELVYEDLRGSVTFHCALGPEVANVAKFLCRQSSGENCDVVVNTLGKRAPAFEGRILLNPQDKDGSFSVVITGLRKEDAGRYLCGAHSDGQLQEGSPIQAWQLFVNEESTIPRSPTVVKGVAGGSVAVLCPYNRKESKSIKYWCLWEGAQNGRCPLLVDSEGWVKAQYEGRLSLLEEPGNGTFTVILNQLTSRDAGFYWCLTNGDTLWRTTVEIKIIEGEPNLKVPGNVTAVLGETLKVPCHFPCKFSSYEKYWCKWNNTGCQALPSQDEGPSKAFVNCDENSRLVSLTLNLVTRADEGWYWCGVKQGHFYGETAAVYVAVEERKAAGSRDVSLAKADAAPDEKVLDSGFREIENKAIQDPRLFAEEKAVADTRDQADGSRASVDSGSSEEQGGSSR

B1: 4A9 (VHH)
VHH: EVQLVESGGGLVQAGGSLRLSCEASGFTLDYSGVGWFRQAPGKERELVSCISRGGDRAGYANSVKGRFTMSRDNAKNILYLQMNSLKPEDTAVYYCAATHSGSGCYDGAIDYWGKGTLVTVSS
In the case of B1, the fold difference in off rate (pH 5 against pH 7) with human serum albumin [1] worked out at 0.54 fold.

B2: 4B8 (VHH)
VHH: EVQLVESGGGLVQAGGSLRLSCAASGGTYSGNAMAWFRQAPGKEREFVAGIDWSSENTRYIDSVKGRFTISRDNAKNTMYLQMNSLKPEDTAVYYCAAGTSWGALASRLEAAYSSWGQGTQVTVSS
notes: Tested as periplasmic extract
Regarding B2, the binding result with human serum albumin [2] was “binds”.

B3: 4B6 (VHH)
VHH: B2 VHH with E1K, A14V, A23V, G27R, S30G, I61T, A111N, S115A
notes: Tested as periplasmic extract
Consider B3, for which, in the assay with human serum albumin [2], the binding result is “binds”.

B4: 4B5 (VHH)
VHH: B2 VHH with G16D, G27R, G31R, N77S
notes: Tested as periplasmic extract
As to B4, the binding result with human serum albumin [2] is on record as “binds”.

B5: 1D2 (VHH)
VHH: EVQLVESGGGLVQPGGSLRLSCAASGFTLDYYAIGWFRRAPGKEREGVSCTSSSDGSTYYADSVKGRFTISRDNAKNTVYLQMNSLKPEDTAVYYCATTFGDACTVVAGIPDQYDFGSWGQGTQVTVSS
Regarding B5, the binding result in assay [3] and in assay [4] was “binds” in each case.

B6: 4D9 (VHH)
VHH: B5 VHH with A33D, R39Q
notes: Purified Nanobody
On to B6, for which the binding result in assay [4] is reported as “binds”.

B7: 4C4 (VHH)
VHH: EVQLVESGGGLVQAGDSLRLSCAASGRPFMSYVMGWFRRAPGKEREFVGGINWGSGNTWYTDSVLGRFTISRDNAKNTVYLQMNSLKPEDTAVYYCATAAGVGYYRYERQYDYWGQGTQVTVSS
notes: Tested as periplasmic extract
B7: the binding result with human serum albumin [2] is reported as “binds”.

B8: 4C5 (VHH)
VHH: B7 VHH with M30S, S31A, G54N, G56A, R72K, T98A, A100G
notes: Tested as periplasmic extract; also called 4CS
Consider B8, for which the binding result with human serum albumin [2] is listed as “binds”.

B9: 4B10 (VHH)
VHH: EVQLVESGGGLVQAGDSLRLSCAASGRTFSSYAMGWFRQAPGTERQFVARITGKGDSTDYADSVRGRFTISRDNAKNTVYLQMNSLKPEDTAVYYCAADAFNSLLQAGRAEYWGQGTQVTVSS
notes: Tested as periplasmic extract; also called 4B1Θ
As for B9, in the assay with human serum albumin [5], the binding result is listed as “binds”.

B10: 4C3 (VHH)
VHH: EVQLVESGGGLVQAGGSLRLSCAASGRTFSSYAMAWFRQAPGEEREFVATISVSGGYTYYADSVKGRFTISRDNAKNTVYLQMNTLKPEDTAVYYCAAGDSSSWLEHMYDYWGQGTQVTVSS
notes: Tested as periplasmic extract
Consider B10, for which, in the assay with human serum albumin [2], the binding result is given as “binds”.

B11: 1D7 (VHH)
VHH: EVQLVESGGGLVQSGGSLRLSCAASGRAFNYYAMGWFRQAPGKERELVAVINWSGGTTSYADSVKGRFTISRSNAKNTVYLQMSSLKPEDTAVYYCAADSIYRTSKDYNYWGQGTQVTVSS
For the molecule B11, the binding result in assay [6] and in assay [4] was “binds” in each case.

B12: 1E7 (VHH)
VHH: EVQLVESGGGLVQAGGSLRLSCAASGRTFSNYVMGWFRQAPGKEREFVAAISWSGVTTYHYSADSVKGRFTTSRDNDRNTAHLQMNSLKPEDTAVYYCAARGRTGSDPRKGDDYDYWGQGTQVTVSS
Take B12: the binding result in assay [3] and in assay [4] was “binds” in each case.

B13: 4C8 (VHH)
VHH: EVQLVESGGGLVQAGDSLRLSCAASGRTYTPYVMGWFRRAPGKEREFVGAVSWSGTNTWYTDSVKGRFTISRDNAKNTVYLQMNSLKPEDTAVYYCAAGDGVGIYRYEHQYDYWGQGTQVTVSS
notes: Tested as periplasmic extract
For the molecule B13, the binding result in the assay with human serum albumin [2] is “binds”.

B14: 4A6 (VHH)
VHH: EVQLVESGGGLVQPGGSLRLSCAASPFTLDYYAIGWFRQAPGKEREGVSCSTSHGKTYHADSVKGRFTISRDNAKNTVYLQMNSLKPEDTAVYYCAAGACMGGSGYEADFGSWGQGTQVTVSS
notes: Tested as periplasmic extract; also called 4Aό
In the case of B14, the binding result with human serum albumin [2] is recorded as “binds”.

B15: 4B1 (VHH)
VHH: B14 VHH with A23V, S25A, P26G, S51I, H54D, K56R, H59Y, N73M, N76K, T77M
notes: Tested as periplasmic extract; also called 4Bl
Regarding B15, the binding result in the assay with human serum albumin [5] is listed as “binds”.

B16: 4C9 (VHH)
VHH: EVQLVESGGGLVQAGDSLRLSCTASERPFSTYVMGWFRRAPGKEREFVGGITWSGINAWYTDSVLGRFTISSDNAKNTVYLQMNSLKPEDTAVYYCAAASGVGRYRYELQYDYWGQGTQVTVSS
notes: Tested as periplasmic extract
B16: the binding result with human serum albumin [2] is “binds”.

B17: 4B7 (VHH)
VHH: EVQLVESGGGLVQAGGSLRLSCAASGFTFDDYAIGWFRQAPGKEREGVSCISSRDGITYYADSVKGRFTISSDNAKNTVYLQMNSLKPEDTAVYYCAADLVGSFPCPVAAYDYWGQGTQVTVSS
Regarding B17, the binding result in assay [6] was “binds”.

The record behind these values is patent publication WO2008074868A1 (dated 2008).
